Test results from the supplement of paper PMC10724198.
± gives the standard deviation of the averaged measurements.

Assays:
[1] = tested on: Saccharomyces cerevisiae; experiment: protein stability index of tFT-peptide fusion (C-terminal peptide) (PSI (0-1 scale)); higher = more stable (slower turnover); conditions: genetic background: wild type; temperature: 30 C
[2] = tested on: Saccharomyces cerevisiae; experiment: as above
Protocol: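 MPS profiling in S. cerevisiae of the tFT-X12 degron library: putative degron peptides plus stable controls, 12 aa, fused to the C-terminus of a sfGFP-mCherry timer. Cells are FACS-sorted into 8 mCherry/sfGFP bins and deep-sequenced. PSI runs from 0 (unstable) to 1 (stable). Backgrounds are wild type, das1Δ and doa10Δ at 30 °C, and wild type, das1Δ, cdc34-1 and cdc53-1 at 37 °C; 2-3 technical replicates each.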

[3] = genetic background: cdc34-1, temperature: 37 C
[4] = genetic background: cdc53-1, temperature: 37 C
[5] = genetic background: das1 deletion, temperature: 30 C
[6] = genetic background: das1 deletion, temperature: 37 C
[7] = genetic background: doa10 deletion, temperature: 30 C
[8] = genetic background: wild type, temperature: 30 C
[9] = genetic background: wild type, temperature: 37 C
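Also: PSI is a weighted mean of sequencing reads over stability bins, variants kept only with over 10 reads, mCherry proximal and sfGFP distal, peptide attached via GGGS linker.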

| Sequence | protein stability index [1] | protein stability index [2, 3] | protein stability index [2, 4] | protein stability index [2, 5] | protein stability index [2, 6] | protein stability index [2, 7] | protein stability index [2, 8] | protein stability index [2, 9] |
| --- | --- | --- | --- | --- | --- | --- | --- | --- |
| FLRFVFSFTFFV | 0.321 ± 0.0054 | 0.387 ± 0.0054 | 0.382 ± 0.019 | 0.408 ± 0.031 | 0.411 ± 0.0061 | 0.265 ± 0.0046 | 0.24 ± 0.028 | 0.3144 ± 0.0024 |
| FLVGVARCPFLV | 0.361 ± 0.012 | 0.632 ± 0.069 | 0.7 ± 0.015 | 0.587 ± 0.018 | 0.725 ± 0.053 | 0.244 ± 0.021 | 0.254 ± 0.034 | 0.401 ± 0.012 |
| FLVLLFCLFFCF | 0.462 ± 0.026 | 0.463 ± 0.053 | 0.447 ± 0.021 | 0.43 ± 0.024 | 0.552 ± 0.015 | 0.524 ± 0.007 | 0.43 ± 0.033 | 0.4952 ± 0.0042 |
| FMCGWRMLVSVS | 0.0594 ± 0.023 | 0.0379 ± 0.032 | 0.0371 ± 0.0077 | 0.0474 ± 0.016 | 0.0676 ± 0.027 | 0.0307 ± 0.0023 | 0.0292 ± 0.011 | 0.045 ± 0.019 |
| FPGLPVFFPPPL | 0.726 ± 0.015 | 0.707 ± 0.052 | 0.766 ± 0.015 | 0.689 ± 0.026 | 0.769 ± 0.012 | 0.709 ± 0.039 | 0.703 ± 0.011 | 0.731 ± 0.012 |
| FPRLERVAVMAR | 0.25 ± 0.011 | 0.117 ± 0.035 | 0.127 ± 0.035 | 0.177 ± 0.032 | 0.244 ± 0.0086 | 0.145 ± 0.0069 | 0.167 ± 0.025 | 0.221 ± 0.031 |
| FQILLRFFRSVA | 0.324 ± 0.017 | 0.5907 ± 0.0037 | 0.657 ± 0.025 | 0.551 ± 0.022 | 0.612 ± 0.0079 | 0.189 ± 0.003 | 0.206 ± 0.029 | 0.4 ± 0.017 |
| FRAKRTVFQRNS | 0.441 ± 0.012 | 0.671 ± 0.044 | 0.737 ± 0.039 | 0.668 ± 0.028 | 0.718 ± 0.01 | 0.2585 ± 0.0011 | 0.289 ± 0.0073 | 0.526 ± 0.021 |
| FRFFRPSFRFFC | 0.2 ± 0.06 | 0.588 ± 0.015 | 0.713 ± 0.021 | 0.624 ± 0.0092 | 0.7518 ± 0.0026 | 0.107 ± 0.014 | 0.118 ± 0.0071 | 0.221 ± 0.033 |
| FRFPCSILMTLL | 0.258 ± 0.028 | 0.578 ± 0.011 | 0.6111 ± 0.0035 | 0.538 ± 0.021 | 0.622 ± 0.026 | 0.196 ± 0.0043 | 0.197 ± 0.013 | 0.297 ± 0.036 |
| FRQEVLHWRQHS | 0.342 ± 0.077 | 0.622 ± 0.064 | 0.712 ± 0.032 | 0.633 ± 0.035 | 0.727 ± 0.028 | 0.167 ± 0.048 | 0.145 ± 0.035 | 0.332 ± 0.015 |
| FRWLAFALLFGC | 0.245 ± 0.0079 | 0.416 ± 0.011 | 0.477 ± 0.027 | 0.38 ± 0.012 | 0.495 ± 0.025 | 0.1758 ± 0.00032 | 0.166 ± 0.018 | 0.348 ± 0.0068 |
| FSARPFLYSFRP | 0.028 ± 0.0092 | 0.694 ± 0.024 | 0.743 ± 0.0082 | 0.667 ± 0.025 | 0.7416 ± 0.0052 | 0.653 ± 0.037 | 0.654 ± 0.0083 | 0.711 ± 0.0089 |
| FSCEFKMSCLKS | 0.507 ± 0.011 | 0.649 ± 0.04 | 0.701 ± 0.0097 | 0.601 ± 0.023 | 0.679 ± 0.016 | 0.474 ± 0.015 | 0.488 ± 0.029 | 0.605 ± 0.017 |
| FSIFFIIEFVGT | 0.242 ± 0.12 | 0.179 ± 0.038 | 0.211 ± 0.0069 | 0.209 ± 0.015 | 0.374 ± 0.013 | 0.157 ± 0.011 | 0.187 ± 0.028 | 0.324 ± 0.022 |
| FSSYLSALLIVV | 0.246 ± 0.012 | 0.102 ± 0.047 | 0.1279 ± 0.00017 | 0.176 ± 0.017 | 0.242 ± 0.0039 | 0.155 ± 0.0065 | 0.167 ± 0.029 | 0.214 ± 0.019 |
| FSYVGFFFLLGF | 0.414 ± 0.016 | 0.417 ± 0.051 | 0.471 ± 0.0073 | 0.346 ± 0.021 | 0.494 ± 0.0069 | 0.392 ± 0.049 | 0.352 ± 0.025 | 0.467 ± 0.0053 |
| FTYCIVFFFSRL | 0.457 ± 0.014 | 0.428 ± 0.024 | 0.537 ± 0.038 | 0.383 ± 0.038 | 0.571 ± 0.045 | 0.379 ± 0.011 | 0.391 ± 0.03 | 0.494 ± 0.021 |
| FTYFFFVRVLLV | 0.187 ± 0.0053 | 0.11 ± 0.045 | 0.14 ± 0.01 | 0.156 ± 0.031 | 0.2772 ± 0.00032 | 0.11 ± 0.0067 | 0.118 ± 0.0091 | 0.129 ± 0.0084 |
| FVCSSVFVVLLF | 0.45 ± 0.044 | 0.349 ± 0.017 | 0.423 ± 0.023 | 0.295 ± 0.029 | 0.4769 ± 0.001 | 0.264 ± 0.017 | 0.294 ± 0.054 | 0.464 ± 0.026 |

| Sequence | protein stability index [1] | protein stability index [2, 3] | protein stability index [2, 4] | protein stability index [2, 5] | protein stability index [2, 6] | protein stability index [2, 7] | protein stability index [2, 8] | protein stability index [2, 9] |
| --- | --- | --- | --- | --- | --- | --- | --- | --- |
| FVFLCLLCISSF | 0.278 ± 0.012 | 0.202 ± 0.0059 | 0.286 ± 0.011 | 0.214 ± 0.027 | 0.355 ± 0.006 | 0.193 ± 0.01 | 0.2 ± 0.03 | 0.3152 ± 0.0017 |
| FVGCFVFYLFLL | 0.417 ± 0.013 | 0.422 ± 0.023 | 0.479 ± 0.016 | 0.418 ± 0.031 | 0.5184 ± 0.0036 | 0.394 ± 0.011 | 0.362 ± 0.035 | 0.458 ± 0.027 |
| FVRVFMASIIWC | 0.452 ± 0.0082 | 0.478 ± 0.032 | 0.487 ± 0.034 | 0.395 ± 0.029 | 0.508 ± 0.024 | 0.391 ± 0.012 | 0.376 ± 0.036 | 0.518 ± 0.013 |
| FVVFAFGVLPVK | 0.466 ± 0.011 | 0.496 ± 0.005 | 0.5131 ± 0.0027 | 0.389 ± 0.028 | 0.552 ± 0.012 | 0.361 ± 0.019 | 0.388 ± 0.039 | 0.514 ± 0.0089 |
| FVVRVVCRLGFF | 0.325 ± 0.015 | 0.2226 ± 0.0011 | 0.338 ± 0.014 | 0.218 ± 0.027 | 0.374 ± 0.02 | 0.182 ± 0.0026 | 0.215 ± 0.012 | 0.3396 ± 0.0013 |
| FWFSFLLSGVCC | 0.347 ± 0.04 | 0.24 ± 0.031 | 0.171 ± 0.013 | 0.272 ± 0.029 | 0.29 ± 0.0029 | 0.257 ± 0.012 | 0.268 ± 0.022 | 0.266 ± 0.016 |
| FWFVSVFIVFFC | 0.223 ± 0.026 | 0.185 ± 0.0033 | 0.26 ± 0.021 | 0.222 ± 0.043 | 0.337 ± 0.022 | 0.179 ± 0.018 | 0.164 ± 0.034 | 0.279 ± 0.018 |
| FYLPGLFFVRFR | 0.391 ± 0.022 | 0.167 ± 0.072 | 0.0822 ± 0.053 | 0.313 ± 0.043 | 0.33 ± 0.019 | 0.616 ± 0.037 | 0.272 ± 0.026 | 0.29 ± 0.04 |
| FYVIFRRACLSV | 0.292 ± 0.077 | 0.281 ± 0.0084 | 0.32 ± 0.016 | 0.234 ± 0.03 | 0.3605 ± 0.0029 | 0.1681 ± 0.00044 | 0.195 ± 0.0079 | 0.299 ± 0.0099 |
| GACGLGMLIFIV | 0.411 ± 0.0075 | 0.585 ± 0.04 | 0.618 ± 0.03 | 0.427 ± 0.026 | 0.623 ± 0.015 | 0.256 ± 0.012 | 0.29 ± 0.02 | 0.511 ± 0.017 |
| GAPIFSSFLLFC | 0.412 ± 0.026 | 0.541 ± 0.054 | 0.652 ± 0.022 | 0.579 ± 0.032 | 0.667 ± 0.012 | 0.332 ± 0.028 | 0.31 ± 0.028 | 0.5425 ± 0.0023 |
| GARCFGFFCFLV | 0.207 ± 0.011 | 0.4284 ± 0.0039 | 0.507 ± 0.027 | 0.447 ± 0.032 | 0.582 ± 0.011 | 0.127 ± 0.0078 | 0.115 ± 0.017 | 0.169 ± 0.0064 |
| GCIFGNVVFVRV | 0.472 ± 0.062 | 0.602 ± 0.031 | 0.6098 ± 0.0023 | 0.424 ± 0.03 | 0.6335 ± 0.0023 | 0.433 ± 0.02 | 0.433 ± 0.022 | 0.611 ± 0.0075 |
| GCIMHLTIYVRD | 0.322 ± 0.0096 | 0.302 ± 0.03 | 0.3761 ± 0.0008 | 0.265 ± 0.026 | 0.439 ± 0.032 | 0.2235 ± 0.0014 | 0.26 ± 0.028 | 0.4088 ± 0.0016 |
| GCPRSWSFNIYV | 0.408 ± 0.04 | 0.686 ± 0.046 | 0.739 ± 0.0099 | 0.665 ± 0.013 | 0.742 ± 0.018 | 0.182 ± 0.018 | 0.199 ± 0.022 | 0.463 ± 0.013 |
| GCRSLRLWLTFS | 0.443 ± 0.029 | 0.638 ± 0.018 | 0.7023 ± 0.0065 | 0.628 ± 0.02 | 0.726 ± 0.013 | 0.299 ± 0.0033 | 0.312 ± 0.015 | 0.551 ± 0.024 |
| GCVVVLIPVVSA | 0.382 ± 0.022 | 0.333 ± 0.014 | 0.338 ± 0.0038 | 0.249 ± 0.038 | 0.415 ± 0.0087 | 0.215 ± 0.0045 | 0.266 ± 0.015 | 0.381 ± 0.0088 |
| GEAYVYLFVYSC | 0.25 ± 0.0051 | 0.4329 ± 0.0022 | 0.467 ± 0.0051 | 0.276 ± 0.036 | 0.541 ± 0.019 | 0.16 ± 0.012 | 0.173 ± 0.017 | 0.387 ± 0.0098 |
| GEWCLPLRLVVY | 0.22 ± 0.043 | 0.061 ± 0.013 | 0.0685 ± 0.024 | 0.185 ± 0.021 | 0.201 ± 0.011 | 0.137 ± 0.01 | 0.172 ± 0.02 | 0.174 ± 0.012 |
